This note sets out measurements from patent US20250213694A1 (SHANGHAI SIMNOVA BIOTECHNOLOGY, published 2025).

The assay addresses T1, human GPRC5D on GPRC5D-overexpressing cells (human, UniProt Q9NZD1 1-345).
T1 construct: whole, on cells; also called also tested on NCI-H929 cells
Put plainly: cell-based ELISA and FACS on human GPRC5D-overexpressing cells and NCI-H929 cells; chimeric human IgG1 format.

T1 sequence (Q9NZD1 whole entry): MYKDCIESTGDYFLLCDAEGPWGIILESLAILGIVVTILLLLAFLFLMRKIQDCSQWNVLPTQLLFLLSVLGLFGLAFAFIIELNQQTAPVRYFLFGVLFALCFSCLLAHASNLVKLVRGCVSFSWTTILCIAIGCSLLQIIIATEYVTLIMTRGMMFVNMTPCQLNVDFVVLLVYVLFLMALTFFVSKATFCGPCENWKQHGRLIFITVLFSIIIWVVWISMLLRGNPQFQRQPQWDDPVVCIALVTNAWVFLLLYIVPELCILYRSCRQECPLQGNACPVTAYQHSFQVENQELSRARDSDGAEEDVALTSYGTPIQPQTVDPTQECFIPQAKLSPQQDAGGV

B1: GPRC5D-mab03 (antibody, V domains shown)
VH: QAYLQQSGAELVRPGASVKMSCKASGYTFTSYNMNWVKQTPRQGLEWIGAIYPGNGDTSYNQKFKGKATLTVDKSSSTAYMQLSSLTSEDSAVYFCARVRLRYAMDYWGQGTSVTVSS
VL: DIVMTQSQKFMSTTVGDRVTITCKASQNVGTAVAWYQQKPGQSPKLLISSASNRYTGVPERFTGSGSGTDFTLTIRNMQSEDLADYFCQQYSSYPWTFGGGTELEIK
notes: Murine variable regions; Screened as a chimeric antibody containing the constant region of human IgG1
Take B1: the binding result is listed as “binds”.

B2: GPRC5D-mab06 (antibody, V domains shown)
VH: QVQLKQSGPGLVQPSQSLSITCTVSGFSLTSYGVNWIRQSPGKGLEWLGVIWSGGNTDYNAAFRSRLSISKDNSKSQVFFKMNSLQADDTAIYYCARGQLGRPYWYFDVWGTGTSVTVSS
VL: DIVMTQSHKFMSTSVGDRVSITCKASQDVRTAVAWYQQKPGQSPKLLIYWASTRHTGVPDRFTGSRSGTDYTLTISSVQAEDLALYYCQQHYSTPLTFGAGTKLELK
notes: as for B1
B2: the binding result is recorded as “binds”.
